Experimental data reported in patent US20260049143A1 (KYMAB, published 2026).

T1: mouse ICOS-mFc (Chimerigen) (mouse, UniProt Q9WVS0 21-141, limits assumed)
T1 construct: Bought fusion; also called mICOS; recombinant mouse ICOS protein; not shown: mouse Fc
T1 sequence: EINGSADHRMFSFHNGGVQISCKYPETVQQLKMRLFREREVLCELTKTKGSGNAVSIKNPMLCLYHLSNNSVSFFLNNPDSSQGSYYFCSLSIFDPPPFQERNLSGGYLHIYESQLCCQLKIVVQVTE

T2: Biotinylated human ICOS protein (human, UniProt Q9Y6W8 21-140, limits assumed, biotinylated)
T2 sequence: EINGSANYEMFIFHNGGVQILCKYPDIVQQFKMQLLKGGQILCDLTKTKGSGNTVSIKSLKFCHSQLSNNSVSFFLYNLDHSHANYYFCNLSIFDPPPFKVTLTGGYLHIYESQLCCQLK

T3: human ICOS-mFc (Chimerigen) (human, UniProt Q9Y6W8 21-140, limits assumed)
T3 construct: Bought fusion; also called hICOS; recombinant human ICOS protein; not shown: mouse Fc
T3 sequence: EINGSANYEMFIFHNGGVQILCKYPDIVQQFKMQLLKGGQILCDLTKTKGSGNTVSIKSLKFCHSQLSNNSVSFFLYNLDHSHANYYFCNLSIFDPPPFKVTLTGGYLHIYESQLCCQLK

T4: mouse ICOS expressed on CHO cells (mouse, UniProt Q9WVS0 21-141)
T4 construct: the cell-expressed form may differ; also called mICOS; CHO mouse ICOS
T4 sequence: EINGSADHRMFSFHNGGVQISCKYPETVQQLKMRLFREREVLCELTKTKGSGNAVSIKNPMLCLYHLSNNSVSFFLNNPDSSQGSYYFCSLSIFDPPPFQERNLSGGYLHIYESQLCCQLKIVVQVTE


Tests used:
[1] = molecular target: T1, mouse ICOS-mFc (Chimerigen); test: DELFIA ELISA, coated mouse ICOS-mFc, N=1
Procedure: (§1) Recombinant ICOS proteins, human ICOS-mFc or mouse ICOS-mFc (Chimerigen) were diluted in 1×PBS and added to Black Hi-bind plates (Griener) at 1 μg/ml, 50 μl/well. Recombinant PD-L1 proteins, human PD-L1-Flag-His or mouse-His were diluted in 1×PBS and added to Black Hi-bind plates (Griener) at 4 μg/ml, 50 μl/well. The plates were left overnight at 4° C. The next day plates were washed 3× with 300 μl/well of 1×PBS+0.1% Tween and blocked with 200 μl/well of 1×PBS+1% BSA blocking buffer for 1 hr at RT on a plate shaker. Plates were washed 3× with 300 μl/well of 1×PBS+0.1% Tween.
(§2) However, human-PD-L1 mAb² antibodies were diluted in 1×PBS+0.1% BSA buffer and diluted 1 in 2 from a starting working concentration of 0.066 μM over an 11 point titration. Titrated antibodies were added to the plates, 50 μl/well and left to incubate for 1 hr at R.T on a plate shaker. Plates were washed 3× with 300 μl/well of 1×PBS+0.1% Tween.
(§3) DELFIA® Eu-labelled Anti-human IgG(Perkin-Elmer) was diluted 1:500 in DELFIA Assay buffer (Perkin-Elmer) and added to the assay plate (50 μl/well), left to incubate for 1 hr at RT on a plate shaker. […] After incubation, assay was read on Envision plate reader (Perkin Elmer), Time-resolved fluorescence (TRF) was measured at 615 nm.

[2] = molecular target: T2, Biotinylated human ICOS protein; test: avidity SPR (ProteOn), biotinylated hICOS on NLC chip, antibody analyte; apparent KD from equilibrium
Procedure: (§4) Biotinylated human ICOS protein diluted at 7.5 μg/mL in running buffer (1×HBS-EP+Buffer Technova, cat. No. H8022) was captured on a NLC sensor chip (Bio-Rad, cat No 1765021). The surface was then blocked using biocytin (Sigma Aldrich, cat No B1758) at 1 mg/mL.
(§5) The assay was carried out at 25° C.
(§6) The buffer injection (i.e. 0 nM) was used to double reference the sensorgrams. The analysis was carried out using the equilibrium model inherent to the ProteOn's analysis software for each mAb² construct.

[3] = molecular target: T3, human ICOS-mFc (Chimerigen); test: HTRF neutralisation of human B7-H2 binding to human ICOS-mFc, n2
Procedure: 5 μl of human ICOS-mFc (Chimerigen) at 20 nM (5 nM final) or 5 μl of mouse ICOS-mFc (Chimerigen) at 4 nM (1 nM final) were added to relevant assay wells. Plate was incubated for 1 hour (hr) at room temperature (RT).
After incubation, assay was read on Envision plate reader (Perkin Elmer) using a standard HTRF protocol. 620 nm and 665 nm channel values were exported to Microsoft Excel and % Delta-F and % Neutralisation calculations performed. Titration curves and IC50 values [M] were plotted using Graphpad (Prism). IC50 values were calculated by first transforming the data using equation X=Log(X). The transformed data was then fitted using nonlinear regression, using fitting algorithm, log (inhibitor) vs. response-variable slope (four parameters).

[4] = molecular target: T2, Biotinylated human ICOS protein; test: avidity SPR (ProteOn), biotinylated hICOS on NLC chip; calculated on-rate
Procedure: as §4, §5, §6

[5] = molecular target: T2, Biotinylated human ICOS protein; test: avidity SPR (ProteOn), biotinylated hICOS on NLC chip, antibody analyte
Procedure: as §4, §5, §6

[6] = molecular target: T4, mouse ICOS expressed on CHO cells; test: flow cytometry, CHO mouse ICOS cells, anti-human IgG AF647, N=1
Procedure: (§7) CHO-S cells transfected with either human ICOS or mouse ICOS were resuspended in FACS buffer (PBS+1% w/v BSA+0.1% w/v sodium azide) and transferred to a 96-well V-bottom plate (Greiner) at a density of 1×10⁵ cells per well. mAb and mAb² were titrated in FACS buffer, 1 in 3 dilution across 11 points from a starting working concentration of 400 nM. Plates were centrifuged at 300×g for 3 minutes, supernatant discarded and 50 μL mAb or mAb² solution were added to cells and incubated at 4° C. for 1 hour. Cells were washed with 150 μL of PBS and centrifuged at 300×g for 3 minutes, supernatant was discarded and cell pellet resuspended in 150 μL PBS added. This wash step was repeated twice. […] Cells were incubated for 1 hour at 4° C. in the dark. Cells were washed with 150 μL of PBS and centrifuged at 300 g for 3 minutes, supernatant was discarded and cell pellet resuspended in 150 μL PBS added. This wash step was repeated twice. Cells were fixed with 25 μL 4% v/v paraformaldehyde, incubated for 20 minutes at 4° C., cells were pelleted by centrifugation at 300×g and the supernatant discarded. Cells were washed with 150 μL of PBS and centrifuged at 300 g for 3 minutes, supernatant was discarded and cell pellet resuspended in 150 μL PBS added. This wash step was repeated. Pelleted cells were resuspended in 110 μL 1×PBS.

[7] = molecular target: T4, mouse ICOS expressed on CHO cells; test: flow cytometry, CHO mouse ICOS cells, anti-human IgG AF647, mean
Procedure: as §7

[8] = molecular target: T4, mouse ICOS expressed on CHO cells; test: flow cytometry, CHO mouse ICOS cells, anti-human IgG AF647, N=2
Procedure: as §7

[9] = molecular target: T3, human ICOS-mFc (Chimerigen); test: DELFIA ELISA, coated human ICOS-mFc, mean
Procedure: as §1, §2, §3

Row | EC50 [1] | Kd [2] | IC50 [3] | kon [4] | koff [5] | EC50 [6] | EC50 [7] | EC50 [8] | EC50 [9] | Binder
1 | 0.327 nM | 0.9 nM | 0.47 nM | 275000 M⁻¹ s⁻¹ | 0.000244 s⁻¹ | 8.92 nM | 10.6 nM | 11 nM | 0.43 nM | STIM003_457 (bispecific antibody, V domains shown, not shown: a dimerising Fc or GST, mAb^2 IgG1; also called ST1M003_457; STIM003_457 mAb^2) VH: EVQLVESGGGVVRPGGSLRLSCVASGVTFDDYGMSWVRQAPGKGLEWVSGINWNGGDTDYSDSVKGRFTISRDNAKNSLYLQMNSLRAEDTALYYCARDFYGSGSYYHVPFDYWGQGILVTVSS VL: EIVLTQSPGTLSLSPGERATLSCRASQSVSRSYLAWYQQKRGQAPRLLIYGASSRATGIPDRFSGDGSGTDFTLSISRLEPEDFAVYYCHQYDMSPFTFGPGTKVDIK
2 | 23.6 nM | 9.2 nM | 1.32 nM | 37600 M⁻¹ s⁻¹ | 0.000346 s⁻¹ | 5.14 nM | 5.21 nM | 3.53 nM | 12.6 nM | STIM001_457 (bispecific antibody, V domains shown, not shown: a dimerising Fc or GST, mAb^2 IgG1; also called STIM001_457 mAb^2) VH: QVQVVQSGAEVKKPGASVKVSCKASGYTFSTFGITWVRQAPGQGLEWMGWISAYNGDTNYAQNLQGRVIMTTDTSTSTAYMELRSLRSDDTAVYYCARSSGHYYYYGMDVWGQGTTVTVSS VL: DIVMTQSPLSLPVTPGEPASISCRSSQSLLHSNEYNYLDWYLQKPGQSPQLLIFLGSNRASGVPDRFSGSGSGTDFTLKITRVEAEDVGIYYCMQSLQTPLTFGGGTKVEIK
